From paper PMC12221289

Experiments:
Assay in all cases: DRaCALA
[1] = tested on: Rcu mt-EF-Tu1 (Romanomermis culicivorax); details: 3'-aminoacylated with Phe (flexizyme); DRaCALA of EF-Tu:GTP:Phe-tRNA ternary complexes, 2 ul spotted on nitrocellulose, n>=3; binding buffer, pH and temperature not in the material
[2] = molecular target: Bta mt-EF-Tu D384A D384A (Bos taurus) (UniProt P49410); details: 3'-aminoacylated with Phe (flexizyme); DRaCALA of EF-Tu:GTP:Phe-tRNA ternary complexes, 2 ul spotted on nitrocellulose, n>=3; binding buffer, pH and temperature not in the material
[3] = molecular target: Bta mt-EF-Tu D384K D384K (Bos taurus) (UniProt P49410); details: 3'-aminoacylated with Phe (flexizyme); DRaCALA of EF-Tu:GTP:Phe-tRNA ternary complexes, 2 ul spotted on nitrocellulose, n>=3; binding buffer, pH and temperature not in the material
[4] = tested on: Cel mt-EF-Tu1 (Caenorhabditis elegans); details: 3'-aminoacylated with Phe (flexizyme); DRaCALA of EF-Tu:GTP:Phe-tRNA ternary complexes, 2 ul spotted on nitrocellulose, n>=3; binding buffer, pH and temperature not in the material
[5] = tested on: Cel mt-EF-Tu1 K386D (Caenorhabditis elegans); details: 3'-aminoacylated with Phe (flexizyme); DRaCALA of EF-Tu:GTP:Phe-tRNA ternary complexes, 2 ul spotted on nitrocellulose, n>=3; binding buffer, pH and temperature not in the material
[6] = tested on: Rcu mt-EF-Tu1 K380A (Romanomermis culicivorax); details: 3'-aminoacylated with Phe (flexizyme); DRaCALA of EF-Tu:GTP:Phe-tRNA ternary complexes, 2 ul spotted on nitrocellulose, n>=3; binding buffer, pH and temperature not in the material
[7] = tested on: Rcu mt-EF-Tu1 K380D (Romanomermis culicivorax); details: 3'-aminoacylated with Phe (flexizyme); DRaCALA of EF-Tu:GTP:Phe-tRNA ternary complexes, 2 ul spotted on nitrocellulose, n>=3; binding buffer, pH and temperature not in the material
[8] = tested on: Rcu mt-EF-Tu1 K380D/ΔC50 (Romanomermis culicivorax); details: GTP; apparent Kd; 3'-aminoacylated with Phe (flexizyme); DRaCALA of EF-Tu:GTP:Phe-tRNA ternary complexes, 2 ul spotted on nitrocellulose, n>=3; binding buffer, pH and temperature not in the material
[9] = tested on: Rcu mt-EF-Tu1 K380E (Romanomermis culicivorax); details: 3'-aminoacylated with Phe (flexizyme); DRaCALA of EF-Tu:GTP:Phe-tRNA ternary complexes, 2 ul spotted on nitrocellulose, n>=3; binding buffer, pH and temperature not in the material
[10] = tested on: Rcu mt-EF-Tu1 K380R (Romanomermis culicivorax); details: 3'-aminoacylated with Phe (flexizyme); DRaCALA of EF-Tu:GTP:Phe-tRNA ternary complexes, 2 ul spotted on nitrocellulose, n>=3; binding buffer, pH and temperature not in the material
[11] = tested on: Rcu mt-EF-Tu1 region F chimera (Romanomermis culicivorax); details: 3'-aminoacylated with Phe (flexizyme); DRaCALA of EF-Tu:GTP:Phe-tRNA ternary complexes, 2 ul spotted on nitrocellulose, n>=3; binding buffer, pH and temperature not in the material
[12] = tested on: Rcu mt-EF-Tu1 ΔC15 (Romanomermis culicivorax); details: GTP; apparent Kd; 3'-aminoacylated with Phe (flexizyme); DRaCALA of EF-Tu:GTP:Phe-tRNA ternary complexes, 2 ul spotted on nitrocellulose, n>=3; binding buffer, pH and temperature not in the material
[13] = tested on: Rcu mt-EF-Tu1 ΔC18 (Romanomermis culicivorax); details: 3'-aminoacylated with Phe (flexizyme); DRaCALA of EF-Tu:GTP:Phe-tRNA ternary complexes, 2 ul spotted on nitrocellulose, n>=3; binding buffer, pH and temperature not in the material
[14] = tested on: Rcu mt-EF-Tu1 ΔC3 (Romanomermis culicivorax); details: 3'-aminoacylated with Phe (flexizyme); DRaCALA of EF-Tu:GTP:Phe-tRNA ternary complexes, 2 ul spotted on nitrocellulose, n>=3; binding buffer, pH and temperature not in the material
[15] = tested on: Rcu mt-EF-Tu1 ΔC50 (Romanomermis culicivorax); details: 3'-aminoacylated with Phe (flexizyme); DRaCALA of EF-Tu:GTP:Phe-tRNA ternary complexes, 2 ul spotted on nitrocellulose, n>=3; binding buffer, pH and temperature not in the material
[16] = tested on: Tbr mt-EF-Tu1 (Trichinella britovi); details: 3'-aminoacylated with Phe (flexizyme); DRaCALA of EF-Tu:GTP:Phe-tRNA ternary complexes, 2 ul spotted on nitrocellulose, n>=3; binding buffer, pH and temperature not in the material
[17] = tested on: Tbr mt-EF-Tu1 S381D (Trichinella britovi); details: 3'-aminoacylated with Phe (flexizyme); DRaCALA of EF-Tu:GTP:Phe-tRNA ternary complexes, 2 ul spotted on nitrocellulose, n>=3; binding buffer, pH and temperature not in the material
[18] = tested on: Tbr mt-EF-Tu1 S381K (Trichinella britovi); details: 3'-aminoacylated with Phe (flexizyme); DRaCALA of EF-Tu:GTP:Phe-tRNA ternary complexes, 2 ul spotted on nitrocellulose, n>=3; binding buffer, pH and temperature not in the material

## AGUCAAAUAGCUUAACCUUAAAGCACAAAUCUUUUAAAUUUGAAGAUGUAUCCACUUUGACUACCA [Phe-mt-tRNALys (T-armless)]
[1]
  Kd: 5.2 nM

## GCGGAUUUAGCUCAGUUGGGAGAGCGCCAGACUGAAGAUCUGGAGGUCCUGUGUUCGAUCCACAGAAUUCGCACCA [Phe-tRNAPhe (canonical)]
[1]
  Kd: 22.6 nM

## Phe-mt-tRNAIle (armless)
[2]
  Kd: 60.1 nM
[3]
  Kd: 96.8 nM
[4]
  Kd: 17.1 nM
[5]
  Kd: 62.6 nM
[1]
  Kd: 5.8 nM
[6]
  Kd: 33.4 nM
[7]
  Kd: 70.4 nM
[8]
  Kd: 350 nM
[9]
  Kd: 150 nM
[10]
  Kd: 16.5 nM
[11]
  Kd: 222 nM
[12]
  Kd: 40.7 nM
[13]
  fold Kd increase vs wild type (fold Kd increase vs wt): 8.7
[14]
  fold Kd increase vs wild type (fold Kd increase vs wt): 1.5
[15]
  fold Kd increase vs wild type (fold Kd increase vs wt): 14
[16]
  Kd: 4.4 nM
[17]
  Kd: 7.1 nM
[18]
  Kd: 3 nM

## Phe-mt-tRNASer(UCU) (D-armless)
[1]
  Kd: 66.4 nM
